Values joined by “and” are separate entries in the source; they are usually repeats but may differ in a detail not shown here. Equal values may be shown once.
What was measured:
PC-3 cells [1] = experiment: [^3H]-Thymidine uptake assay; format: cell-based, human; conditions: for ^3[H]-Thymidine Uptake (% of control): 72 hours
Method: The in vitro growth inhibition effect of rHuPSP94 was assessed using [^3H]-Thymidine uptake assay. [^3H]-Thymidine uptake assay involves [^3H]-Thymidine incorporation into cellular DNA of actively proliferating cells. It measures the proliferative index of the cells versus the MTS assay, which quantifies the number of lived cells following treatment. Cells were seeded in Costar 96 well cell culture flat bottom plates in RPMI supplemented media containing 50 μg/ml of bovine serum albumin (BSA) and 0.1 μM FeSO4. PC-3 cells were exposed to various concentrations of rHuPSP94 for 72 hours and during the final 16 hours of incubation cells were pulsed with 1 μCi of [^3H]-Thymidine. The radioactivity in each well of the plate is counted by a beta-counter and is expressed as total counts per minutes (cpm). Results of in vitro effect of rHuPSP94 on PC-3 cells using the ^3[H]-Thymidine uptake assay are summarized in Table 3 and are expressed as percentage of radioactivity measured for treated-cells relative to the radioactivity measured for non-treated cells (for which [^3H]-thymidine uptake value was set at 100%).
[^3H]-Thymidine uptake assay involves [^3H]-Thymidine incorporation into cellular DNA of actively proliferating cells. [^3H]-Thymidine uptake assay measures the proliferative index of the cells versus the MTS assay, which quantifies the number of lived cells following treatment. The anti-proliferative effects of PCK3145 and two other synthetic polypeptides derived from the amino and carboxy terminus ends of PSP94 (SEQ ID NO: 4 and NO: 6, respectively) as well as the decapeptide (SEQ ID NO: 3) previously shown to mimic the biological action of native PSP94 were assessed in [H3]-Thymidine uptake assay on PC-3 cells. Two separate experiments were conducted with GMP-grade PCK3145.

PC-3 cells [2] = experiment: DNA fragmentation assay (DNA ladder, apoptosis); format: cell-based, human
Method: Cell apoptosis result in DNA fragmentation can be evaluated by the presence of a DNA ladder visualized when DNA is run on a 1.2% agarose gel. DNA ladder assay (apoptosis assay) was performed following exposure of PC-3 to various concentrations of the polypeptides for 72 hours. The polypeptides that were used in this particular experiment are polypeptide 7-21 (SEQ ID NO: 4), polypeptide PCK3145 (SEQ ID NO: 5) and polypeptide 76-94 (SEQ ID NO: 6). […] This effect was especially evident following treatment with PCK3145 (SEQ ID NO: 5), which is illustrated by FIG. 7. Lane 1 of the gel illustrated in FIG. 7 represents a lambda HindIII digest standard.
Apoptosis of PC-3 cells, following a 72 hours exposure to PCK3145 at 500 μg/ml concentration, was evaluated in supplemented media by DNA fragmentation assay. Doxorubicin was used as a reference positive control. Untreated cells and PCK3145-treated cells were harvested and the DNA was isolated. Isolated DNA was run on a 1.2% agarose gel containing Ethidium Bromide (EtBr). […] Lane 1 of the gel illustrated in FIG. 25 represents the DNA marker (100 base pair DNA ladder). Lane 2 of the gel illustrated in FIG. 25 represents a control of untreated PC-3 cells.

tumor cells = conditions: exogenous PSP94, in vivo and in vitro; cited from earlier work
[3] = system: follicle-stimulating hormone (FSH); conditions: in-vitro and in-vivo in adult male rats; cited from earlier work
[4] = system: human prostate cancer cells PC-3; experiment: MTS assay, growth inhibitory effect on PC-3 cells; format: cell-based; conditions: for % Viability (control = 100%): 72 hours
From the text: Cell proliferation was monitored on PC-3 cells using the MTS/PMS (phenazine methosulfate) kit (Promega), which primarily measures mitochondrial activity of live cells. The basic principle of this method involves the fact that the mitochondrial enzymes of the live cells metabolize the MTS/PMS dyes forming a brown colored precipitate which can be measured as optical density (OD) by absorption at 490 nm in a spectrophotometer. Therefore, the OD values are proportional to the number of living cells. In addition, monitoring of cell morphology was also performed. Cell morphology would be indicative of their health status. For example, viable cells would appear adherent and spread out whereas dead cells would be in suspension in the media and would appear granular and round.
PC-3 cells (ATCC, Lot AT06) used in these experiments were at a passage number lower or equal to 70 (n≧70). Cells were seeded in Costar 96 well cell culture flat bottom plates in RPMI supplemented media containing 50 μg/ml of bovine serum albumin (BSA) and 0.1 μM FeSO4. Peptide was diluted in the same media. Cells were continuously exposed to the polypeptides of the present invention for 72 hours without changing media. Native PSP94 or rHuPSP94 concentrated two fold were directly added to wells and diluted to 1× in order to minimize cell manipulation and avoid detachment.
Native PSP94, rHuPSP94, polypeptide 22-36 and PB111 polypeptide (scrambled polypeptide) were also included in this experiment as controls. Cell proliferation assay was performed on either PC-3 cells or normal fibroblasts (used here as control) using the MTS/PMS kit (Promega). Four thousand cells (FIGS. 9 and 10) or three thousand (FIG. 11) cells were seeded in Costar 96 well cell culture flat bottom plates in RPMI supplemented media containing 50 μg/ml of bovine serum albumin (BSA) and 0.1 μM FeSO4. In addition, monitoring of cell morphology was also performed.
This assay measures the mitochondrial activity of the live cells. The basic principle of this method involves the fact that the mitochondrial enzymes of the live cells metabolize the MTS/PMS dyes forming a brown colored precipitate which can be measured as optical density (OD) by absorption at 490 nm in a spectrophotometer. Therefore, the OD values are proportional to the number of living cells.
In addition, a visual observation of the cells was also done to check the cell morphology, which could also be indicative of cell growth. The following conditions for MTS assay were used: PC-3 (ATCC, Lot AT06), passage number n≧70, cell line adapted to grow in serum-free OPTI-MEM and in RPMI supplemented with BSA (50 μg/ml) and Ferrous Sulfate (0.1 μM), continuous exposure for up to 72 hours without changing media (i.e., adding PCK3145 at 2× concentration directly to wells and diluting it 1:2 to 1× to minimize cell manipulation and avoid detachment).

Mat Ly Lu (MLL) tumor [5] = experiment: Study MLL-1, Mat LyLu tumor implanted in nude mice; format: in vivo; conditions: 1 μg/kg/day s.c.; p=0.042
Method: (§1) Studies MLL-1 and MLL-2 were performed as follows; on day 0, male Copenhagen rats were injected subcutaneously with 5×10^5 Mat LyLu cells per rat. These cells were derived from cultures of Mat LyLu cell line grown in RPMI media containing 10% (v/v) of fetal calf serum in logarithmic phase of growth. Cells were harvested from the culture flasks by trypsinization, were centrifuged at 1200 rotation per minute (rpm) and washed three timed with Hanks balanced salt solution (HBSS). Following washing, cells were counted and adjusted to a concentration of 5×10^6 cells/ml in HBSS. A 0.1 ml volume of tumor cell inoculum containing 5×10^5 cells was administered subcutaneously into the flank region of each rat. Three days after tumor cell implantation (i.e., inoculation), animals were treated daily by a subcutaneous injection of the desired polypeptide until day 13.
Experiments illustrated in FIG. 12 show the anti-tumor efficacy validation of rHuPSP94 against Mat LyLu (MLL) tumor implanted in nude mice (Protocol based on S. Garde et al.; The Prostate, 22: 225-233, 1993).
For study MLL-1 (FIG. 12), tumor-implanted nude mice were separated in different groups, each receiving various amount of rHuPSP94 or control reagents. The different groups used in these experiments are illustrated below. Each group contained 8 mice.

Mat Ly Lu (MLL) tumor [6] = experiment: Study MLL-2, Mat Ly Lu tumor implanted in SCID mice; format: in vivo; conditions: 1 μg/kg/day s.c.; p=0.010
Method: as §1
Experiments illustrated in study MLL-2 show the anti-tumor efficacy validation of rHuPSP94 against Mat Ly Lu (MLL) tumor implanted in severe combined immunodeficiency (SCID) mice (Protocol based on S. Garde et al.; The Prostate, 22: 225-233, 1993).
For study MLL-2 (FIG. 13), tumor-implanted Scid mice were separated in different groups each receiving various amounts of rHuPSP94 or control reagents. The different groups used in these experiments are illustrated below. Each group contained 8 mice.

[7] = system: PC-3 human prostate tumor; experiment: PC-3 human prostate tumor in nude mice, subcutaneous treatment for 14 days (Examples 10 and 11); format: in vivo, Nude mouse; conditions: 1 μg/kg body weight per day s.c.
Method: PC-3 human prostate tumor was obtained from ATCC (ATCC 1435). PC-3 cells were grown in RPMI media containing 10% (v/v) of fetal calf serum and were harvested in the logarithmic phase of growth by trypsinization. Cells were centrifuged at 1200 rotation per minute (rpm) and washed three timed with Hanks balanced salt solution (HBSS). Following washing, cells were counted and adjusted to a concentration of 1×10^7 cells/ml in HBSS. A 0.1 ml volume of tumor cell inoculum containing 1×10^6 cells was administered subcutaneously into the two opposite flank region of each Nude mouse (Nu/Nu, BALE/c background). Tumor growth was monitored for approximately 18 days. Once tumor growth has been established (volume of tumor reached a volume of 50 mm^3) treatment with rHuPSP94 (SEQ ID NO: 2) was initiated and was performed once a day for 14 days by the subcutaneous route. Based on the assigned treatment groups illustrated in table 4.
PC-3 human prostate tumor (ATCC 1435) obtained from ATCC was implanted bilaterally into nude mice and tumor growth was monitored for approximately 18 days. PC-3 cells were injected once subcutaneously into each flank of the mice. Once tumor growth has been established (i.e., volume of tumor reached 0.25 to 0.50 cm^3) the treatment with decapeptide (SEQ ID NO: 3), native PSP94 (SEQ ID NO: 1) and control scrambled polypeptide PB111 was initiated and was performed once a day for 14 days by the subcutaneous route based on the treatment groups (randomly assigned) illustrated in table 5.

B1: native PSP94: Prostate Secretory Protein of 94 amino acids, native human seminal plasma protein, SEQ ID NO: 1 (protein)
chain: SCYFIPNEGVPGDSTRKCMDLKGNKHPINSEWQTDNCETCTCYETEISCCTLVSTPVGYDKDNCQRIFKKEDCKYIVVEKKDPKKTCSVSEWII
^3[H]-Thymidine Uptake (% of control) (PC-3 cells [1]; 5 μg/ml): 97 % of control
^3[H]-Thymidine Uptake (% of control) (PC-3 cells [1]; 10 μg/ml): 98 % of control
^3[H]-Thymidine Uptake (% of control) (PC-3 cells [1]; 20 μg/ml): 100 % of control
^3[H]-Thymidine Uptake (% of control) (PC-3 cells [1]; 40 μg/ml): 98 % of control
^3[H]-Thymidine Uptake (% of control) (PC-3 cells [1]; 80 μg/ml): 77 % of control
reduction in the [H3]-Thymidine uptake (PC-3 cells [1]; 72 hours exposure (FIG. 24)): ~50%
DNA laddering effect (FIG. 7 lane 4) (PC-3 cells [2]; 20 μg): DNA laddering effect
DNA laddering effect (FIG. 7 lane 3) (PC-3 cells [2]; 40 μg): DNA laddering effect
effect on tumor cell growth (tumor cells): inhibitory effect
secretion of circulating FSH [3]: suppress secretion of

B2: rHuPSP94: recombinant human PSP94 expressed in yeast (Pichia pastoris), non-glycosylated, 10 cysteine residues, SEQ ID NO: 2 (protein)
chain: EAEAYVEFSCYFIPNEGVPGDSTRKCMDLKGNKHPINSEWQTDNCETCTCYETEISCCTLVSTPVGYDKDNCQRIFKKEDCKYIVVEKKDPKKTCSVSEWII
modifications: recombinant human PSP94 (rHuPSP94) produced from yeast
% Viability (control = 100%) ([4]; 5 μg/ml): 98% and 92% and 89%
% Viability (control = 100%) ([4]; 10 μg/ml): 84% and 95% and 69%
% Viability (control = 100%) ([4]; 20 μg/ml): 78% and 80% and 79%
% Viability (control = 100%) ([4]; 40 μg/ml): 100% and 70% and 71% and 68% and 72% and 63% and 95%
% Viability (control = 100%) ([4]; 60 μg/ml): 98% and 78% and 63% and 85% and 52%
reduction in cell numbers (i.e., viability) ([4]; 80 μg/ml): 37% and 35%
% Viability (control = 100%) ([4]; 80 μg/ml): 90% and 55% and 59% and 58% and 63% and 78% and 62%
reduction in cell numbers (i.e., viability) ([4]; 120 μg/ml): 57%
% Viability (control = 100%) ([4]; 120 μg/ml): 52% and 43% and 68% and 60%
^3[H]-Thymidine Uptake (% of control) (PC-3 cells [1]; 5 μg/ml): 94 % of control
^3[H]-Thymidine Uptake (% of control) (PC-3 cells [1]; 10 μg/ml): 101 % of control
^3[H]-Thymidine Uptake (% of control) (PC-3 cells [1]; 20 μg/ml): 98 % of control
^3[H]-Thymidine Uptake (% of control) (PC-3 cells [1]; 40 μg/ml): 79 % of control
reduction in the percentage of cells incorporating [^3H]-thymidine (PC-3 cells [1]; 80 μg/ml for 72 hrs, compared to non-treated control): 65%
^3[H]-Thymidine Uptake (% of control) (PC-3 cells [1]; 80 μg/ml): 35 % of control
tumor weight reduction (Mat Ly Lu (MLL) tumor [5]): 26%
tumor weight reduction (Mat Ly Lu (MLL) tumor [6]): 65%
tumor growth (tumor volume) [7]: tumor growth reduction
tumor growth reduction compared with Doxorubicin (5 mg/kg/day) [7]: reduction was similar to that observed for Doxorubicin

Source: patent publication US8551951B2, “Pharmaceutical preparations and methods for inhibiting tumors” (Aenorasis SA Pharmaceuticals and Medical Devices, priority 2000, dated 2013)
